The record followed here is US20240409645A1 (DUALYX, published 2024).

Assay [1] deals with T1, human interleukin-2 receptor α-chain (IL-2Rα; CD25), recombinant protein (human, UniProt P01589 22-240, limits assumed).
T1 construct: also called huIL2R-a; hIL-2RA
T1 sequence: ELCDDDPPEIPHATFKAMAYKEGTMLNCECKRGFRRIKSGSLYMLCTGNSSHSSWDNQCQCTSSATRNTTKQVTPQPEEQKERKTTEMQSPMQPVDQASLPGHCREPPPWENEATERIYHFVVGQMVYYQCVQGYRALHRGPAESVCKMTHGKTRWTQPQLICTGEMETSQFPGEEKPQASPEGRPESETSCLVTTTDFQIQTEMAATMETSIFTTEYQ
Put plainly: P.E. off-rate SPR. In short, it runs like this:
(§1)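 First, the IL-2R protein is immobilised via amine coupling in acetate buffer to roughly 2500 RU on a CM5 sensor chip. Next, the VHH extract is loaded at 30 uL/min. Finally, dissociation is recorded for 120s.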

Assay [2] addresses T2, mouse IL-2Rα, recombinant protein (mouse, UniProt P01590 22-236, limits assumed).
T2 construct: also called moIL2R-a
T2 sequence (looked up): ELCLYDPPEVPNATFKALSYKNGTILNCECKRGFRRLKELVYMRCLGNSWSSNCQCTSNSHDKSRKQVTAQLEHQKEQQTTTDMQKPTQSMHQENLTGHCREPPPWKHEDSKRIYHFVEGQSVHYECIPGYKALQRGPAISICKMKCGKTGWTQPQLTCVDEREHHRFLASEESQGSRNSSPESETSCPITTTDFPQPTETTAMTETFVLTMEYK
Put plainly: P.E. off-rate SPR. The gist of the method:
as §1

The target in assay [3] is T1, human interleukin-2 receptor α-chain …. Nature of the assay: P.E. binding ELISA. The gist of the method:
(§2)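 Plates were coated overnight at 4° C with human or mouse IL-2R chain protein, and free sites blocked for 1 hour in 4% Marvel in PBS. Periplasmic extracts diluted 1:5 in 1% Marvel/PBS then bound for 1 hour, with specificity assessed from 450 nm absorbance relative to negative controls.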
For orientation: In an ELISA, binding on a coated surface is turned into a signal by an enzyme label.

In assay [4] the target is T2, mouse IL-2Rα, recombinant protein. Put plainly: P.E. binding ELISA. In short, it runs like this: as §2
For assay [5], the target named is T3, human interleukin-2 receptor α-chain (human, UniProt P01589 22-240, limits assumed).
T3 construct: Recombinant human IL-2Rα protein, coated on the ELISA plate or amine-coupled to a CM5 chip; also called human IL-2Rα; hu IL-2R
T3 sequence: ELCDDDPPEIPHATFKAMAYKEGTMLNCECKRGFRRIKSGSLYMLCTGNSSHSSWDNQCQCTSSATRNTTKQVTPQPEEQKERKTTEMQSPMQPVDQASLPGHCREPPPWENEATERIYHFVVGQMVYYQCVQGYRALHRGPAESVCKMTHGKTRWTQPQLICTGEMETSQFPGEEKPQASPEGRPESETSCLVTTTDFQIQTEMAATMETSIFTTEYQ
Put plainly: binding ELISA, periplasmic extract 1:5 on coated human IL-2Rα, anti-c-myc detection. On the procedure:
In a binding ELISA, human or mouse IL-2Rα, IL-2Rβ and IL-2Rγ proteins were coated directly on maxisorp microtiter plates overnight at 4° C. Free binding sites were blocked using 4% Marvel in PBS for 1 hour. Next, 1:5 dilution of P.E. in 1% Marvel/PBS were added to wells and incubated for 1 hour. […] Binding specificity was determined based on O.D. at 450 nm values compared to negative controls.

The target in assay [6] is T3, human interleukin-2 receptor α-chain. Put plainly: SPR (Biacore 3000) off-rate ranking, periplasmic extract over immobilised human IL-2Rα. On the procedure: SPR was performed to determine dissociation rates using Biacore 3000 instrument (GE Healthcare). Briefly, human and mouse IL-2R proteins were immobilized on carboxylmethyl dextran sensor chip (CM5) at approximately 2500 RUs using amine coupling in acetate buffer (GE Healthcare). The VHH-containing P.E. were loaded with a flow rate of 30 uL/min and the off-rates were measured over a 120s period.
In general terms: Surface plasmon resonance follows binding to a sensor surface in real time, without labels.

A further assay addresses T4, mouse IL-2Rα (mouse, UniProt P01590 22-236, limits assumed).
T4 construct: Recombinant mouse IL-2Rα protein, coated on the ELISA plate or amine-coupled to a CM5 chip; also called mo IL-2R; moIL2R-a
T4 sequence (looked up): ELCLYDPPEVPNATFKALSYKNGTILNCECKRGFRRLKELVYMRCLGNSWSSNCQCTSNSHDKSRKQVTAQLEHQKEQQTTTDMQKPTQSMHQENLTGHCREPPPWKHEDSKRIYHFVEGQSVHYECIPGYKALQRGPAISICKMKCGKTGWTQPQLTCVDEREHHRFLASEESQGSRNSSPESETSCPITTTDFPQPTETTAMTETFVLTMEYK
Nature of the assay: SPR (Biacore 3000) off-rate ranking, periplasmic extract over immobilised mouse IL-2Rα.

B1: 9-MP05G01 VHH (periplasmic extract) (VHH)
VHH: EVQLVESGGGLVQAGGSLRLSCAASGGSIYTYNMGWFRQAPGKEREFVAGTLWSGGDSVYADFAKGRFTLSRENAKNTLYLQMNSLKPEDTATYYCAIDPLSLTSDWRVDELSSWGKGTLVTVSS
notes: soluble VHH in periplasmic extract
The term koff denotes the first-order rate constant of dissociation. B1: the koff in assay [1] turned out to be 0.000169 s⁻¹; in assay [2] it was 0.0442 s⁻¹. Further, the OD450 nm in assay [3] is 2.35 OD450 nm; in assay [4] it was 0.047 OD450 nm.

B2: 4-MP01F04 VHH (periplasmic extract) (VHH)
VHH: QVQLVESGGGLVQAGGSLRLSCAASGGTFRTRNMGWFRRAPGKEREFVAAVSWNVDNKLYADSVKGRFTISRDNGRNMVYLQMNSLKPEDTAVYYCAADNIPLSSDMRPTATEYDYWGQGTQVTVSS
notes: as for B1
For the molecule B2, the figures for the off-rate constant (koff) in assay [1] and in assay [2] were 0.000258 s⁻¹ and 0.256 s⁻¹, respectively. In addition, the OD450 nm is 2.49 OD450 nm in assay [3] and 0.046 OD450 nm in assay [4].

B3: FJ1427_P035MP05F12 (VHH)
VHH: QLQLVESGGGLVQAGGSLRLSCLASGLTFDGYAIGWFRQAPGKELEGVSYITGSDGSSYYADSVKGRFTISSDNAKNTVYLHMNSLKPDDAAVYYCAIDHLGSRGGYHSSWWRSSDMDLWGKGTLVTVSS
notes: Tested as soluble VHH in a crude periplasmic extract (P.E.); CDR3 family 4; also called Clone nr
As to B3, the “PE binding ELISA (OD450 nm)” value in assay [5] is 2.19 OD450. The results for the koff (in assay [6]; with mouse IL-2Rα) were 0.000469 s⁻¹ and 0.00463 s⁻¹, respectively.

B4: 12-MP05B12 VHH (periplasmic extract) (VHH)
VHH: QVQLVESGGGLVQAGGSLRLSCAASGFTFDGYAIGWFRQAPGKEREGVSYITGSDGSTYYADSVKGRFTISSNNAKNTVYLHMNSLKPDDAAVYYCAIDRLGSRGAYVPIWWRSSDMDLWGKGTLVTVSS
notes: as for B1
Take B4: the values for the dissociation rate constant (koff) in assay [1] and in assay [2] were 0.000222 s⁻¹ and 0.000547 s⁻¹, respectively. Besides, the OD450 nm in assay [3] stood at 2.14 OD450 nm; in assay [4] it was 0.936 OD450 nm.

B5: 11-MP05H04 VHH (periplasmic extract) (VHH)
VHH: QLQLVESGGGLVQAGGSLRLSCAASGLTFEGYAIGWFRQAPGKEREGVSYITGSDGTTYYINSVKGRFTISSDNAKSTVYLQMNTLKPEDTAVYYCAVDRLGSQGRYASAWWRSGDMDLWGKGTQVTVSS
notes: as for B1
Take B5: the dissociation rate constant (koff) in assay [1] amounted to 0.0012 s⁻¹; in assay [2], 0.00163 s⁻¹. Besides, the OD450 nm amounted to 2.22 OD450 nm in assay [3] and 0.163 OD450 nm in assay [4].
